Experimental findings from PMC2711183 (The EMBO journal, 2009) are described below.

Substitutions are numbered along the chain they refer to. Read-outs that look alike come from different tables or passages of the source.

T1: MccB K10A (E. coli) (UniProt Q47506)
T1 sequence: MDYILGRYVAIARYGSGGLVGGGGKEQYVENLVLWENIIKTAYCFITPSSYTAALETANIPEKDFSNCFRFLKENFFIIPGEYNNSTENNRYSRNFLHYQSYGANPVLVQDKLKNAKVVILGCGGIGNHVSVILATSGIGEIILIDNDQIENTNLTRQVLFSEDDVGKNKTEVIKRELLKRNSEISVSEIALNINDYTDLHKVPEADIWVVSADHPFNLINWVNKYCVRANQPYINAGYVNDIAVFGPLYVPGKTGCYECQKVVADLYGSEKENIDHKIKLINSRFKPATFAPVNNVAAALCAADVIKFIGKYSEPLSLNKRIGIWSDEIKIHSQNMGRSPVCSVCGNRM

B1: SeMet-MccA (peptide)
peptide: MRTGNAN
B2: MccB-His6 (enzyme, E. coli, UniProt Q47506 1-350, looked up)
chain: T1 sequence with A10K
B3: MccB (N-terminal His6-tag removed) (enzyme, E. coli, UniProt Q47506 1-350, looked up)
chain: T1 sequence with A10K

The subject of series [1] is Nc1ncnc2c1ncn2[C@@H]1O[C@H](COP(=O)(O)OP(=O)(O)OP(=O)(O)O)[C@@H](O)[C@H]1O. Description: purified protein. Format: biochemical, Escherichia coli. Particulars: 75 mM Tris-HCl pH 8.0, 5 mM MgCl2, 2.5 mM TCEP, co-substrate MccA.
The next series addresses MccB ΔNTE (E. coli). The experiment in a line: AUC.
The target in series [2] is B3. The experiment in a line: crystal structure.
In the next series the target is T1, MccB K10A (E. coli).
Series [3] concerns the molecule itself. Description: crystal structure.
Series [4] concerns the molecule itself. Description: crystal structure. The source holds these as a separate data set.

One may read the Km as the concentration of substrate that gives half-maximal velocity. For orientation: kcat means the number of substrate molecules converted per active site and unit of time at saturation. As a reminder, the kcat/Km is the turnover number divided by the Michaelis constant. Consider MccB (Escherichia coli; C123L), for which, in series [1], the Km was determined as 220 ± 80 µM, the turnover number (kcat) came out at 0.000306 ± 8.33e-05 s⁻¹ and the kcat/Km stood at 2.22 M⁻¹ s⁻¹.
In the case of MccB (Escherichia coli; K10A), in series [1], the Km was 120 ± 20 µM, the kcat was 0.00103 ± 0.000139 s⁻¹ and the kcat/Km was found to be 8.33 M⁻¹ s⁻¹.
Taken in the same sequence, the figures for MccB (Escherichia coli; N241A) were 400 ± 120 µM, 0.000472 ± 0.000139 s⁻¹ and 1.11 M⁻¹ s⁻¹.
Regarding MccB (Escherichia coli; R94A), in series [1], the Km stood at 380 ± 130 µM, the kcat is 0.00125 ± 0.000917 s⁻¹ and the kcat/Km turned out to be 2.22 M⁻¹ s⁻¹.
The like results for MccB (Escherichia coli; Y239A) were, in that order, 380 ± 190 µM, 5.56e-06 ± 2.22e-06 s⁻¹ and 0.0139 M⁻¹ s⁻¹.
One may read the stoichiometry N as the number of molecules, sites or subunits per partner or assembly. For the molecule MccB ΔNTE (domain or fragment), in the series with MccB ΔNTE (E. coli), the stoichiometry N came to 2.
On to B1, for which the binding result in series [2] is “binds”. The Km for MccA in the MccB-catalysed reaction (HPLC of product formation) with MccB K10A (E. coli) amounted to 370 µM.
For B2, in “crystal structure [3]”, the binding result was “binds”.
In the case of B3, the binding result in the series “crystal structure [4]” is recorded as “binds”.
